Measured values taken from patent publication US20180051068A1.

Biological target: integrin β1 expressed by the β1AGD25 cell line
Experiment: cell-based or functional assay

## CalA-mCherry expressed in S. cerevisiae that co-expresses Candida albicans Als1
  endocytosis of S. cerevisiae by β1AGD25 cells (differential fluorescence assay): 3 times
